Laboratory results taken from publication PMC8458385, “Molecular basis for PICS-mediated piRNA biogenesis and cell division” (Nature Communications, 2021).
One block for each binder: values may come before it.

B8: ERH-2 (natural protein, C. elegans, UniProt Q20057 1-113, looked up)
chain: MSTSSHTVLLIQTSPRLDSRTWGDYESVTDALDALCKMFEDFLSKKSAAPVTYDVSQVYEFLDKLSDVSMMIFNRETGQYIGRTRAWIKQQVYEMMRGRCQHPEGGEKVIVGY
notes: ERH-2, C. elegans, amplified from a cDNA library; also called ERH-2 wild type; source: E. coli BL21(DE3), purified (Ni-NTA, TEV cleavage, second Ni-NTA); not shown: His tag (inferred from the Ni-NTA purification), N-terminal, cleaved
B9: TOFU-6 RRM domain (TOFU-6^RRM, residues 2-92) (domain or fragment, C. elegans, UniProt Q09293 2-92, looked up)
chain: ASSSTAYYLKDAGFHIRNIPKAWNDWNLFHVFQNFGKVSYCRVVGQSNDGQVQLGFVNMMSVADADEVRKNLNDGNLIGENFTLKVTDHKN
notes: TOFU-6, C. elegans, RRM domain, residues 2-92; source: E. coli BL21(DE3), purified (Ni-NTA, TEV cleavage, second Ni-NTA); not shown: His tag (inferred from the Ni-NTA purification), N-terminal, cleaved
B10: TOFU-6^RRM (residues 2-92) (domain or fragment, C. elegans, UniProt Q09293 2-92, looked up)
chain: ASSSTAYYLKDAGFHIRNIPKAWNDWNLFHVFQNFGKVSYCRVVGQSNDGQVQLGFVNMMSVADADEVRKNLNDGNLIGENFTLKVTDHKN
notes: TOFU-6, C. elegans, RRM domain, residues 2-92; Gene codon-optimised and synthesised; for the crystal co-expressed with PICS-1^RRM from a modified pETDuet-1; also called TOFU-6 RRM domain; TOFU-6^C; source: E. coli BL21(DE3), purified (Ni-NTA, TEV, second Ni-NTA; complex with PICS-1^RRM also Superdex 75); not shown: His tag (from the Ni-NTA purification), N-terminal, cleaved

Columns and labels:
[1] = biological target: the molecule itself; assay: SEC; gel filtration of PICS-1^RRM wild type and F217E alone, HiLoad 16/600 Superdex 75; 20 mM Tris, 200 mM NaCl (pH 8.5 in the methods, pH 7.5 in the legend)
[2] = biological target: B9; assay: ITC; MicroCal ITC200, 25 °C; 20 mM Tris pH 8.5, 200 mM NaCl or 20 mM MES pH 6.5, 200 mM NaCl; 1-2 mM protein or peptide in the syringe titrated into 30-50 μM protein in the cell; one-site model; Kd mean ± SD of a minimum of two experiments; conditions: both partners purified
[3] = biological target: T1, TOFU-6^RRM D26A/W27A (C. elegans, UniProt Q09293 2-92, D26A | W27A); assay: as above; conditions: both partners purified
T1 construct: TOFU-6, C. elegans, RRM domain, residues 2-92, with D26A and W27A; Cloned into pET28-MHL; also called D26A/W27A(TOFU-6RRM); source: E. coli BL21(DE3), purified (Ni-NTA, TEV cleavage, second Ni-NTA); not shown: His tag (inferred from the Ni-NTA purification), N-terminal, cleaved
T1 sequence (looked up): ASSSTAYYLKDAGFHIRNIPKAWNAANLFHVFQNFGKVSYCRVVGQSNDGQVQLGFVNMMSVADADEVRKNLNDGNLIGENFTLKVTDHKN

[4] = biological target: T2, ERH-2 D67A (C. elegans, UniProt Q20057 1-113, D67A); assay: as above; conditions: both partners purified
T2 construct: ERH-2, C. elegans, with D67A; Cloned into pET28-MHL; also called D67A(ERH-2); source: E. coli BL21(DE3), purified (Ni-NTA, TEV cleavage, second Ni-NTA); not shown: His tag (inferred from the Ni-NTA purification), N-terminal, cleaved
T2 sequence (looked up): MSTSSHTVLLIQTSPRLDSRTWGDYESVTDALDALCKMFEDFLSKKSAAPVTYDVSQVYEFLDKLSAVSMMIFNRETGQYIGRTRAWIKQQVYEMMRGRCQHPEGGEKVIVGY

[5] = biological target: B8; assay: as above; conditions: both partners purified
[6] = biological target: T3, ERH-2^1-103-(Gly-Ser-Ser)7-PICS-1^180-200 fusion protein (C. elegans, UniProt Q20057 1-103; O76616 180-200); assay: as above; conditions: both partners purified
T3 construct: ERH-2, C. elegans, residues 1-103; 21-aa linker (Gly-Ser-Ser)7; PICS-1 (PID-3), C. elegans, EBM, residues 180-200; the methods describe only the 1-103 fusion; also called ERH-2-(GSS)7-PICS-1180-200; ERH-2-(GSS)7-PICS-1; source: E. coli BL21(DE3), purified (Ni-NTA, TEV cleavage, second Ni-NTA, Superdex 75); not shown: His tag (inferred from the Ni-NTA purification), N-terminal, cleaved
T3 chain: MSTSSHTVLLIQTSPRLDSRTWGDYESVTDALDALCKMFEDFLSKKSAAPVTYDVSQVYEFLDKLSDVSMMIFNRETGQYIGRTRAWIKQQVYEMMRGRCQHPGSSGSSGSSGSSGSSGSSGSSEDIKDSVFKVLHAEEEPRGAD

[7] = biological target: T4, PICS-1^5-282 (almost full-length PICS-1) (C. elegans, UniProt O76616 5-282); assay: SEC; ERH-2 and TOFU-6^RRM mixed with PICS-1 5-282, PICS-1 5-200 or PICS-1 ΔEBM; Superose 6 Increase 10/300 GL; 20 mM Tris pH 8.5, 200 mM NaCl; peaks analysed by SDS-PAGE; conditions: both partners purified
T4 construct: Cloned into pET28-MHL; Two copies in the 2:2:2 complex with ERH-2 and TOFU-6^RRM; source: E. coli BL21(DE3), purified (Ni-NTA, TEV cleavage, second Ni-NTA); not shown: His tag (inferred from the Ni-NTA purification), N-terminal, cleaved
T4 sequence (looked up): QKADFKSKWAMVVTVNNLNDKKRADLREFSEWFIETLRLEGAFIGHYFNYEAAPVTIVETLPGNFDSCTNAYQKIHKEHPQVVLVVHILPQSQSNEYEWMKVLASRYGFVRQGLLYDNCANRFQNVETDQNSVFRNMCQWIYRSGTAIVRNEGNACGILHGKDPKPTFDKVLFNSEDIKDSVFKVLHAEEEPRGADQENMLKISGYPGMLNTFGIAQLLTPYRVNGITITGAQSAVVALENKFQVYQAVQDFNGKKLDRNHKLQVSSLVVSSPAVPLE

[8] = biological target: T5, PICS-1^5-200 (PICS-1^ΔRRM) (C. elegans, UniProt O76616 5-200); assay: as above; conditions: both partners purified
T5 construct: PICS-1 (PID-3), C. elegans, residues 5-200 (lacks the RRM domain); Cloned into pET28-MHL; source: E. coli BL21(DE3), purified (Ni-NTA, TEV cleavage, second Ni-NTA); not shown: His tag (inferred from the Ni-NTA purification), N-terminal, cleaved
T5 sequence (looked up): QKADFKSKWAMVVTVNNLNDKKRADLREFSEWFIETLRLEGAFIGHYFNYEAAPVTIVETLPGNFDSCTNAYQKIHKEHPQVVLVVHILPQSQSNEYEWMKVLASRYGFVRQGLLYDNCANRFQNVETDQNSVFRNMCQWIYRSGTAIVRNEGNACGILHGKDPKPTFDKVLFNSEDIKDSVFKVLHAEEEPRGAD

[9] = biological target: T6, PICS-1^5-282 (C. elegans, UniProt O76616 5-282); assay: SEC; ERH-2 and TOFU-6^RRM mixed with PICS-1 constructs, Superose 6 Increase 10/300 GL, 20 mM Tris hydrochloride pH 8.5, 200 mM NaCl; fractions on SDS-PAGE; conditions: both partners purified
T6 construct: Cloned into pET28-MHL; also called almost full-length PICS-1; source: E. coli BL21(DE3), purified (Ni-NTA, TEV, second Ni-NTA); not shown: His tag (from the Ni-NTA purification), N-terminal, cleaved
T6 sequence (looked up): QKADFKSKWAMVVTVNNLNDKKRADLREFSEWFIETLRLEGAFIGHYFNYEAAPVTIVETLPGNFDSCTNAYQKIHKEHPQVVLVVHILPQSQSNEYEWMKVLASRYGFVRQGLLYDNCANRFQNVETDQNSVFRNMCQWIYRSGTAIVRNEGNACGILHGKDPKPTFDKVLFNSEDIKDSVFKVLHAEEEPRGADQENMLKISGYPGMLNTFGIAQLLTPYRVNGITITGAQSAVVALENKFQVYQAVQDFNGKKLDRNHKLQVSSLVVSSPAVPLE

[10] = biological target: B10; assay: ITC; MicroCal ITC200, 25 °C, 20 mM Tris pH 8.5, 200 mM NaCl or 20 mM MES pH 6.5, 200 mM NaCl; 1–2 mM in the syringe into 30–50 μM in the cell; one-site binding model; conditions: both partners purified
[11] = biological target: T7, ERH-2 (C. elegans, UniProt Q20057 1-113); assay: as above; conditions: both partners purified
T7 construct: ERH-2, C. elegans, amplified from a cDNA library; also called wild type ERH-2; source: E. coli BL21(DE3), purified (Ni-NTA, TEV, second Ni-NTA); not shown: His tag (from the Ni-NTA purification), N-terminal, cleaved
T7 sequence (looked up): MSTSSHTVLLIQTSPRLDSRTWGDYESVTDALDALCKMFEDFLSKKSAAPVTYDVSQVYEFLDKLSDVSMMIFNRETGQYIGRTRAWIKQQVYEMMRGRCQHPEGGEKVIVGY

B1: PICS-1(PID-3) RRM domain (PICS-1^RRM, residues 201-282) (domain or fragment, C. elegans, UniProt O76616 201-282, looked up)
chain: QENMLKISGYPGMLNTFGIAQLLTPYRVNGITITGAQSAVVALENKFQVYQAVQDFNGKKLDRNHKLQVSSLVVSSPAVPLE
notes: Homodimer by gel filtration and in the crystal structure; The methods describe co-expression with TOFU-6^RRM from pETDuet-1 for the complex; the results say that the two domains were purified each for ITC; also called WT; source: E. coli BL21(DE3), purified (Ni-NTA, TEV cleavage, second Ni-NTA, gel filtration); not shown: His tag (inferred from the Ni-NTA purification), N-terminal, cleaved
binding result [1]: binds
stoichiometry N [2]: 1.1
Kd [3]: 30 µM
stoichiometry N [3]: 0.7

B2: PICS-1^RRM F217E (domain or fragment, C. elegans, UniProt O76616 201-282, looked up)
chain: QENMLKISGYPGMLNTEGIAQLLTPYRVNGITITGAQSAVVALENKFQVYQAVQDFNGKKLDRNHKLQVSSLVVSSPAVPLE
notes: Cloned into pET28-MHL; also called F217E(PICS-1RRM); source: E. coli BL21(DE3), purified (Ni-NTA, TEV cleavage, second Ni-NTA, gel filtration); not shown: His tag (inferred from the Ni-NTA purification), N-terminal, cleaved
stoichiometry N [2]: 0.7

Binder: B8
binding result [7]: binds
binding result [8]: binds

Binder: B9
binding result [7]: binds

Binder: B10
binding result [9]: binds

B11: PICS-1^RRM F217E (domain or fragment, C. elegans, UniProt O76616 201-282, looked up)
chain: QENMLKISGYPGMLNTEGIAQLLTPYRVNGITITGAQSAVVALENKFQVYQAVQDFNGKKLDRNHKLQVSSLVVSSPAVPLE
notes: Cloned into pET28-MHL; the homodimer is disrupted by the mutation; source: E. coli BL21(DE3), purified (Ni-NTA, TEV, second Ni-NTA, Superdex 75); not shown: His tag (from the Ni-NTA purification), N-terminal, cleaved
Kd [10]: 0.57 µM

Second part, the binder after the results:

Kd [2]: 17 µM
stoichiometry N [2]: 1.1
B3: PICS-1^RRM K246A/F247A (domain or fragment, C. elegans, UniProt O76616 201-282, looked up)
chain: QENMLKISGYPGMLNTFGIAQLLTPYRVNGITITGAQSAVVALENAAQVYQAVQDFNGKKLDRNHKLQVSSLVVSSPAVPLE
notes: Cloned into pET28-MHL; Some legends and the strain list print K245A/F246A for the transgene; also called K246A/F247A(PICS-1RRM); source: E. coli BL21(DE3), purified (Ni-NTA, TEV cleavage, second Ni-NTA); not shown: His tag (inferred from the Ni-NTA purification), N-terminal, cleaved

Kd [2]: 21 µM
stoichiometry N [2]: 1.2
B4: PICS-1^RRM Y250A/Q251A (domain or fragment, C. elegans, UniProt O76616 201-282, looked up)
chain: QENMLKISGYPGMLNTFGIAQLLTPYRVNGITITGAQSAVVALENKFQVAAAVQDFNGKKLDRNHKLQVSSLVVSSPAVPLE
notes: Cloned into pET28-MHL; also called Y250A/Q251A(PICS-1RRM); source: E. coli BL21(DE3), purified (Ni-NTA, TEV cleavage, second Ni-NTA); not shown: His tag (inferred from the Ni-NTA purification), N-terminal, cleaved

stoichiometry N [4]: 0.8
stoichiometry N [5]: 0.7
B5: SUMO-PICS-1^180-200 (ERH-2 binding motif, EBM) (domain or fragment, C. elegans, UniProt O76616 180-200, looked up)
chain: EDIKDSVFKVLHAEEEPRGAD
notes: Fused to the C-terminus of SUMO (pET28-SUMO); the Kds are for the SUMO fusion; also called PICS-1EBM; source: E. coli BL21(DE3), purified (Ni-NTA); not shown: SUMO, N-terminal, kept

Kd [6]: 4.9 µM
stoichiometry N [6]: 0.9
stoichiometry N [5]: 0.9
B6: SUMO-TOST-1^34-54 (domain or fragment, C. elegans, UniProt Q18490 34-54, looked up)
chain: NKRITLNERFGVLEKGYTIQA
notes: TOST-1, C. elegans, residues 34-54; Fused to the C-terminus of SUMO (pET28-SUMO); the Kds are for the SUMO fusion; also called TOST-1 fragment; source: E. coli BL21(DE3), purified (Ni-NTA); not shown: SUMO, N-terminal, kept

stoichiometry N [6]: 1.3
stoichiometry N [5]: 1
B7: SUMO-PID-1^50-70 (domain or fragment, C. elegans, UniProt Q19541 50-70, looked up)
chain: TNLHRKVTLSDRFELAALGYE
notes: PID-1, C. elegans, residues 50-70; Fused to the C-terminus of SUMO; the Kds are for the SUMO fusion; also called PID-1 fragment; source: E. coli BL21(DE3), purified (Ni-NTA); not shown: SUMO, N-terminal, kept

Kd [11]: 3.2 µM
B12: SUMO-fused TOST-1^34-54 (domain or fragment, C. elegans, UniProt Q18490 34-54, looked up)
chain: NKRITLNERFGVLEKGYTIQA
notes: TOST-1, C. elegans, residues 34-54; Cloned into pET28-SUMO; also called TOST-1 fragment; source: E. coli BL21(DE3), purified (Ni-NTA); not shown: SUMO, N-terminal, kept
